Reference: publication PMC10397247
Where two headings read alike, the source gives them in different places. Values belong to the binder of their own block, whether it stands above or below them.

Tests used:
[1] = molecular target: T1, 4H3381-bH; assay: two-hybrid library CCNG1;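 further: natural log of median RNA to DNA barcode read ratio; higher means stronger binding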
T1 chain: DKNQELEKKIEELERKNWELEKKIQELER

[2] = molecular target: T2, 4H56-bH; assay: two-hybrid library CCNG1;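 further: natural log of median RNA to DNA barcode read ratio; higher means stronger binding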
T2 chain: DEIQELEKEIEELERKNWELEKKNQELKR

[3] = molecular target: T3, 4H796-bH; assay: two-hybrid library CCNG1;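 further: natural log of median RNA to DNA barcode read ratio; higher means stronger binding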
T3 chain: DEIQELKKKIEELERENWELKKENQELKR

[4] = molecular target: T4, 4H3297-bH; assay: two-hybrid library CCNG1;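 further: natural log of median RNA to DNA barcode read ratio; higher means stronger binding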
T4 chain: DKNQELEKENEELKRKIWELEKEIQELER

[5] = molecular target: T5, 4H3041-bH; assay: two-hybrid library CCNG1
T5 chain: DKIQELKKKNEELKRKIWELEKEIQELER

[6] = molecular target: T6, 4H349-bH; assay: two-hybrid library CCNG1
T6 chain: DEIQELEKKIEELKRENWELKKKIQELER

[7] = molecular target: T7, 4H3364-bH; assay: two-hybrid library CCNG1
T7 chain: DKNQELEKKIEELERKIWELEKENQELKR

[8] = molecular target: T8, 4H730-bH; assay: two-hybrid library CCNG1
T8 chain: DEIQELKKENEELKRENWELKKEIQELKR

[9] = molecular target: T9, 4H949-bH; assay: two-hybrid library CCNG1
T9 chain: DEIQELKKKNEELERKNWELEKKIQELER

[10] = molecular target: T10, 4H932-bH; assay: two-hybrid library CCNG1
T10 chain: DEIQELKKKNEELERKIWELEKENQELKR

[11] = molecular target: T11, 4H3277-bN; assay: two-hybrid library CCNG1
T11 chain: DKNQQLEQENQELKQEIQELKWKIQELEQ

[12] = molecular target: T12, 4H40-bN; assay: two-hybrid library CCNG1
T12 chain: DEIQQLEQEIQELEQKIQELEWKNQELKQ

[13] = molecular target: T13, 4H3057-bN; assay: two-hybrid library CCNG1
T13 chain: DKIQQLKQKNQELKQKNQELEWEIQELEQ

[14] = molecular target: T14, 4H741-bN; assay: two-hybrid library CCNG1
T14 chain: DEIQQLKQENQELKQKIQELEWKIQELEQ

[15] = molecular target: T15, 4H477-bN; assay: two-hybrid library CCNG1
T15 chain: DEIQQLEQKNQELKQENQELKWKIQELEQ

[16] = molecular target: T16, 4H348-bN; assay: two-hybrid library CCNG1
T16 chain: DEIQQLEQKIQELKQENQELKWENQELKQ

[17] = molecular target: T17, 4H492-bN; assay: two-hybrid library CCNG1
T17 chain: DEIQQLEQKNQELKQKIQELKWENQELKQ

[18] = molecular target: T18, 4H319-bN; assay: two-hybrid library CCNG1
T18 chain: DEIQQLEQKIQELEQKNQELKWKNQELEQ

[19] = molecular target: T19, P6mS; assay: two-hybrid library CC1
T19 chain: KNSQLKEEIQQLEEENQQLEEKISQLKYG

[20] = molecular target: T20, P7mS; assay: two-hybrid library CC1; conditions: mean of both orientations
T20 chain: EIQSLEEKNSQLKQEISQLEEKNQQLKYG

[21] = molecular target: T21, P8mS; assay: two-hybrid library CC1; conditions: mean of both orientations
T21 chain: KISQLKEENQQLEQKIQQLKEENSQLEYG

[22] = molecular target: T22, P8; assay: two-hybrid library CC1; conditions: mean of both orientations
T22 chain: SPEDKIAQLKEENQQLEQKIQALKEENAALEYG

[23] = molecular target: T23, P7; assay: two-hybrid library CC1; conditions: mean of both orientations
T23 chain: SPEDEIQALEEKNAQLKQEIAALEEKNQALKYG

[24] = molecular target: T24, P9; assay: two-hybrid library CC1; conditions: mean of both orientations
T24 chain: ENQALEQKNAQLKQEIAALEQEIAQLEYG

[25] = molecular target: T25, O7-bH; assay: two-hybrid library CCNG1
T25 chain: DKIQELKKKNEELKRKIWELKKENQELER

[26] = molecular target: T26, O9-bH; assay: two-hybrid library CCNG1
T26 chain: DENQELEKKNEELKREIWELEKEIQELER

[27] = molecular target: T27, O8-bH; assay: two-hybrid library CCNG1
T27 chain: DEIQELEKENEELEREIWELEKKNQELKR

[28] = molecular target: T28, 4H3277-bA; assay: two-hybrid library CCNG1
T28 chain: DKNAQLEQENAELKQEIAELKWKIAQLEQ

[29] = molecular target: T29, 4H3057-bA; assay: two-hybrid library CCNG1
T29 chain: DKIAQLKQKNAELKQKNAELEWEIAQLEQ

[30] = molecular target: T30, 4H319-bA; assay: two-hybrid library CCNG1
T30 chain: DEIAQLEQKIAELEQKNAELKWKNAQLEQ

[31] = molecular target: T31, 4H40-bA; assay: two-hybrid library CCNG1
T31 chain: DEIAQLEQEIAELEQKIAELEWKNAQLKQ

[32] = molecular target: T32, 4H477-bA; assay: two-hybrid library CCNG1
T32 chain: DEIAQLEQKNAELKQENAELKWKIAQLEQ

[33] = molecular target: T33, 4H348-bA; assay: two-hybrid library CCNG1
T33 chain: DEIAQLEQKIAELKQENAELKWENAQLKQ

[34] = molecular target: T34, 4H741-bA; assay: two-hybrid library CCNG1
T34 chain: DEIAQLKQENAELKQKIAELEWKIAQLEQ

[35] = molecular target: T35, 4H492-bA; assay: two-hybrid library CCNG1
T35 chain: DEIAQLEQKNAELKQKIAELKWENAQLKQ

[36] = molecular target: T36, O8-bN; assay: two-hybrid library CCNG1
T36 chain: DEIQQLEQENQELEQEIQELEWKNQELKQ

[37] = molecular target: T37, O9-bN; assay: two-hybrid library CCNG1
T37 chain: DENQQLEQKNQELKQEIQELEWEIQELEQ

[38] = molecular target: T38, O7-bN; assay: two-hybrid library CCNG1
T38 chain: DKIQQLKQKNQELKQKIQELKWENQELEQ

[39] = molecular target: T39, APC8910-AA; assay: two-hybrid library CCmax; conditions: mean of both orientations
T39 chain: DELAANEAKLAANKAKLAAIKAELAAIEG

[40] = molecular target: T40, APC4264-AA; assay: two-hybrid library CCmax; conditions: mean of both orientations
T40 chain: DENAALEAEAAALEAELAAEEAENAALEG

[41] = molecular target: T41, APC6108-AA; assay: two-hybrid library CCmax; conditions: mean of both orientations
T41 chain: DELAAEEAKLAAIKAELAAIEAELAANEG

[42] = molecular target: T42, APC2405-AA; assay: two-hybrid library CCmax
T42 chain: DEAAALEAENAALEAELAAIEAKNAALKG

[43] = molecular target: T43, APC5383-AA; assay: two-hybrid library CCmax; conditions: mean of both orientations
T43 chain: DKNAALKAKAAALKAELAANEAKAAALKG

[44] = molecular target: T44, APC8191-AA; assay: two-hybrid library CCmax; conditions: mean of both orientations
T44 chain: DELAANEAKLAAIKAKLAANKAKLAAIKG

[45] = molecular target: T45, APC7099-AA; assay: two-hybrid library CCmax; conditions: mean of both orientations
T45 chain: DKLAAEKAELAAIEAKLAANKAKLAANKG

[46] = molecular target: T46, APC9319-AA; assay: two-hybrid library CCmax; conditions: mean of both orientations
T46 chain: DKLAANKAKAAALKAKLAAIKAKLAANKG

[47] = molecular target: T47, APC4011-AA; assay: two-hybrid library CCmax; conditions: mean of both orientations
T47 chain: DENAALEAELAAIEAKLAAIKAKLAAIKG

[48] = molecular target: T48, APC4436-AA; assay: two-hybrid library CCmax; conditions: mean of both orientations
T48 chain: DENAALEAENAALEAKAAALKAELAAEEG

[49] = molecular target: T49, APC3645-AA; assay: two-hybrid library CCmax; conditions: mean of both orientations
T49 chain: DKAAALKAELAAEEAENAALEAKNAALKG

[50] = molecular target: T50, APC9096-AA; assay: two-hybrid library CCmax; conditions: mean of both orientations
T50 chain: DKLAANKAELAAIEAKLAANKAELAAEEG

[51] = molecular target: T51, 4H3922-AA; assay: two-hybrid library CCmax; conditions: mean of both orientations
T51 chain: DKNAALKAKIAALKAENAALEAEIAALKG

[52] = molecular target: T52, 4H3625-AA; assay: two-hybrid library CCmax; conditions: mean of both orientations
T52 chain: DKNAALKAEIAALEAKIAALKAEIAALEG

[53] = molecular target: T53, 4H369-AA; assay: two-hybrid library CCmax; conditions: mean of both orientations
T53 chain: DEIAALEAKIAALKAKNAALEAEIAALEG

[54] = molecular target: T54, 4H4033-AA; assay: two-hybrid library CCmax; conditions: mean of both orientations
T54 chain: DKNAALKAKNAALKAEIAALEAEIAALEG

[55] = molecular target: T55, 4H3664-AA; assay: two-hybrid library CCmax; conditions: mean of both orientations
T55 chain: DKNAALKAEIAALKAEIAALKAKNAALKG

[56] = molecular target: T56, 4H3605-AA; assay: two-hybrid library CCmax; conditions: mean of both orientations
T56 chain: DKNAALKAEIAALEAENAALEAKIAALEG

[57] = molecular target: T57, 4H662-AA; assay: two-hybrid library CCmax; conditions: mean of both orientations
T57 chain: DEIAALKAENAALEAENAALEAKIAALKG

[58] = molecular target: T58, 4H55-AA; assay: two-hybrid library CCmax; conditions: mean of both orientations
T58 chain: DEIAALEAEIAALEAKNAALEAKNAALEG

[59] = molecular target: T59, 4H327-AA; assay: two-hybrid library CCmax
T59 chain: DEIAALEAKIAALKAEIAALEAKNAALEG

[60] = molecular target: T60, 4H481-AA; assay: two-hybrid library CCmax; conditions: mean of both orientations
T60 chain: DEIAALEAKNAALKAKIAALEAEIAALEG

B1: 4H3041-bH (peptide)
chain: DKIQELKKKNEELKRKIWELEKEIQELER
interaction score [1]: -0.693 | interaction score [2]: 0.679 | interaction score [3]: -0.497 | interaction score [4]: 0.592 | interaction score [5]: 0.721 | interaction score [6]: -0.833 | interaction score [7]: -1.08 | interaction score [8]: -0.877 | interaction score [9]: -0.161 | interaction score [10]: -0.092

B3: P6mS (peptide)
chain: KNSQLKEEIQQLEEENQQLEEKISQLKYG
interaction score [19]: -2.84 | interaction score [20]: -2.67 | interaction score [21]: -2.85 | interaction score [22]: -2.63 | interaction score [23]: -2.01 | interaction score [24]: -2.37

B4: O6-bH (peptide)
chain: DKNQELKKKIEELKRENWELEKKIQELKR
interaction score [25]: 0.89 | interaction score [26]: -0.446 | interaction score [27]: 0.914

B6: O6-bN (peptide)
chain: DKNQQLKQKIQELKQENQELEWKIQELKQ
interaction score [36]: -0.754 | interaction score [37]: -1.38 | interaction score [38]: -0.589

B7: APC2405-AA (peptide)
chain: DEAAALEAENAALEAELAAIEAKNAALKG
interaction score [39]: -1.63 | interaction score [40]: -1.55 | interaction score [41]: -1.24 | interaction score [42]: -1.47 | interaction score [43]: -1.52 | interaction score [44]: 0.786 | interaction score [45]: -1.31 | interaction score [46]: -1.81 | interaction score [47]: -1.01 | interaction score [48]: -1.04 | interaction score [49]: -1.29 | interaction score [50]: -1.39

B9: O7-bN (peptide)
chain: DKIQQLKQKNQELKQKIQELKWENQELEQ
interaction score [36]: 0.737 | interaction score [37]: -1.53 | interaction score [38]: -1.44

B11: O7-bH (peptide)
chain: DKIQELKKKNEELKRKIWELKKENQELER
interaction score [25]: -0.477 | interaction score [26]: 0.59 | interaction score [27]: 1.5

B12: 4H327-AA (peptide)
chain: DEIAALEAKIAALKAEIAALEAKNAALEG
interaction score [51]: 0.621 | interaction score [52]: 1.3 | interaction score [53]: -0.747 | interaction score [54]: 0.297 | interaction score [55]: 0.733 | interaction score [56]: -1.29 | interaction score [57]: -1.42 | interaction score [58]: -0.319 | interaction score [59]: 1.84 | interaction score [60]: -0.644

B13: O5-bH (peptide)
chain: DENQELEKEIEELERKNWELKKEIQELER
interaction score [25]: 0.921 | interaction score [26]: -0.548 | interaction score [27]: -0.103

The next lines start with the values.

interaction score [11]: -0.965 | interaction score [12]: -1.17 | interaction score [13]: -1.22 | interaction score [14]: -0.673 | interaction score [15]: -2.69 | interaction score [16]: -1.34 | interaction score [17]: -1.18 | interaction score [18]: -1.2
B2: 4H3057-bN (peptide)
chain: DKIQQLKQKNQELKQKNQELEWEIQELEQ

interaction score [28]: -1.24 | interaction score [29]: -0.859 | interaction score [30]: -1.24 | interaction score [31]: -1.17 | interaction score [32]: -1.12 | interaction score [33]: -1.57 | interaction score [34]: -1.38 | interaction score [35]: -1.16
B5: 4H3057-bA (peptide)
chain: DKIAQLKQKNAELKQKNAELEWEIAQLEQ

interaction score [36]: -0.445 | interaction score [37]: -1.42 | interaction score [38]: -0.471
B8: O5-bN (peptide)
chain: DENQQLEQEIQELEQKNQELKWEIQELEQ

interaction score [39]: -2.1 | interaction score [40]: -1.93 | interaction score [41]: -1.6 | interaction score ([42]; mean of both orientations): -1.6 | interaction score [43]: -2.15 | interaction score [44]: -2.34 | interaction score [45]: -1.68 | interaction score [46]: -1.47 | interaction score [47]: -1.21 | interaction score [48]: -1.65 | interaction score [49]: -1.5 | interaction score [50]: -1.8
B10: APC232-AA (peptide)
chain: DELAAIEAEAAALEAKAAALKAEAAALEG
